Experimental findings from the supplement of paper PMC9112550, “Optimization of the antimicrobial peptide Bac7 by deep mutational scanning” (BMC Biology, 2022) are described below.

This series relates to Escherichia coli TOP10. The experiment in a line: shrunken log2 fold change of peptide-encoding DNA abundance (4.5 h post-induction vs induction); higher = less antimicrobial activity (less host growth inhibition). Conditions: time post-induction: 4.5 h; library: site-saturation at positions 5, 18, 19, 20.
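Further: peptides expressed intracellularly from a pBAD plasmid library in pooled LB shake-flask culture, induced with 0.3% L-arabinose, DNA abundance read by NGS, three biological replicates, DESeq2 with apeglm shrinkage.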

Consider RRIRLRPPRLPRPRPRPQTPPRP, for which the “shrunken log2 fold change” value stood at 0.358. To RRIRCRPPRLPRPRPRPVCAPRP belongs 0.264; to RRIRTRPPRLPRPRPRPKVEPRP, 0.12; to RRIRVRPPRLPRPRPRPKPMPRP, 0.131. To RRIRWRPPRLPRPRPRPPQDPRP belongs 0.267; to RRIRYRPPRLPRPRPRPRFNPRP, -0.808; to RRIRQRPPRLPRPRPRPIFCPRP, 0.276. To RRIRGRPPRLPRPRPRPRLTPRP belongs 0.948. Turning to RRIRSRPPRLPRPRPRPEFGPRP, the “shrunken log2 fold change” value is 0.358. To RRIRIRPPRLPRPRPRPMREPRP belongs 0.0761.

For RRIRNRPPRLPRPRPRPPPEPRP, the “shrunken log2 fold change” value is 1.1. For RRIRTRPPRLPRPRPRPIVYPRP the value was -0.85. On to RRIRTRPPRLPRPRPRPHPFPRP, for which the “shrunken log2 fold change” value was -0.00172. For RRIRCRPPRLPRPRPRPALWPRP the value was 0.621. For RRIRPRPPRLPRPRPRPKIPPRP, the “shrunken log2 fold change” value is -0.408.

Take RRIRTRPPRLPRPRPRPRYIPRP: the “shrunken log2 fold change” value was -0.368.

For the sequence RRIRGRPPRLPRPRPRPCIRPRP, the “shrunken log2 fold change” value was 0.174. For RRIRIRPPRLPRPRPRPNKDPRP the value was -0.818; for RRIRKRPPRLPRPRPRPEHHPRP, -0.0888; for RRIRSRPPRLPRPRPRPNLLPRP, -0.0918. For RRIRCRPPRLPRPRPRPEWRPRP the value was 0.391; for RRIRHRPPRLPRPRPRPWTTPRP, 0.00489; for RRIRMRPPRLPRPRPRPLQYPRP, -0.106.

For the sequence RRIRLRPPRLPRPRPRPHMMPRP, the “shrunken log2 fold change” value was -0.135. To RRIRKRPPRLPRPRPRPTNDPRP belongs 0.191; to RRIRARPPRLPRPRPRPQDTPRP, -0.179. Consider RRIRHRPPRLPRPRPRPNDHPRP, for which the “shrunken log2 fold change” value was -0.499. To RRIRNRPPRLPRPRPRPDKHPRP belongs -0.0308; to RRIRWRPPRLPRPRPRPVMLPRP, -0.0383; to RRIRQRPPRLPRPRPRPSKEPRP, -0.371. For RRIRERPPRLPRPRPRPGFIPRP the value was -0.256; for RRIRRRPPRLPRPRPRPAEGPRP, -0.0943; for RRIRMRPPRLPRPRPRPRFPPRP, 0.573. To RRIRNRPPRLPRPRPRPWILPRP belongs -0.146; to RRIRMRPPRLPRPRPRPLIFPRP, -0.139; to RRIRSRPPRLPRPRPRPLLSPRP, -0.051. Consider RRIRERPPRLPRPRPRPGLDPRP, for which the “shrunken log2 fold change” value is -0.0204.

With RRIRPRPPRLPRPRPRPIMTPRP, the “shrunken log2 fold change” value stood at 0.0516.

As for RRIRSRPPRLPRPRPRPKETPRP, the “shrunken log2 fold change” value was -0.0164. On to RRIRMRPPRLPRPRPRPEICPRP, for which the “shrunken log2 fold change” value amounted to 0.00534. With RRIRCRPPRLPRPRPRPPIKPRP, the “shrunken log2 fold change” value is -0.0789. For RRIRNRPPRLPRPRPRPNEVPRP the value was -0.0252; for RRIRRRPPRLPRPRPRPATEPRP, 0.421; for RRIRTRPPRLPRPRPRPPWSPRP, 0.194. To RRIRTRPPRLPRPRPRPKNCPRP belongs -0.0901; to RRIRIRPPRLPRPRPRPVVLPRP, -0.21; to RRIRDRPPRLPRPRPRPKFFPRP, 0.136.

For RRIRMRPPRLPRPRPRPAFRPRP, the “shrunken log2 fold change” value was 0.214. For RRIRARPPRLPRPRPRPWFTPRP the value was -0.316. For RRIRDRPPRLPRPRPRPTYFPRP the value was -0.0127; for RRIRWRPPRLPRPRPRPEFRPRP, 0.422; for RRIRERPPRLPRPRPRPLLMPRP, 0.0107.

For the sequence RRIRVRPPRLPRPRPRPRRYPRP, the “shrunken log2 fold change” value was -0.0486. RRIRIRPPRLPRPRPRPKILPRP: the “shrunken log2 fold change” value was -0.0568. On to RRIRLRPPRLPRPRPRPKAWPRP, for which the “shrunken log2 fold change” value was -0.0115. Take RRIRHRPPRLPRPRPRPDTEPRP: the “shrunken log2 fold change” value was -0.172. For RRIRMRPPRLPRPRPRPPFWPRP the value was 1.2. On to RRIRGRPPRLPRPRPRPWQNPRP, for which the “shrunken log2 fold change” value came to 0.041. To RRIRCRPPRLPRPRPRPSAMPRP belongs 0.272; to RRIRQRPPRLPRPRPRPVNNPRP, -0.0612. To RRIRDRPPRLPRPRPRPRFQPRP belongs 0.491. To RRIRKRPPRLPRPRPRPVTPPRP belongs 0.307. Turning to RRIRFRPPRLPRPRPRPYHCPRP, the “shrunken log2 fold change” value was 0.0331. For RRIRLRPPRLPRPRPRPTANPRP the value was 0.329; for RRIRNRPPRLPRPRPRPSPHPRP, -0.171. For RRIRCRPPRLPRPRPRPSDRPRP the value was -0.473; for RRIRGRPPRLPRPRPRPHDIPRP, 0.0295. For RRIRWRPPRLPRPRPRPDPNPRP the value was 0.196; for RRIRQRPPRLPRPRPRPDMYPRP, 0.0381. Turning to RRIRHRPPRLPRPRPRPAKYPRP, the “shrunken log2 fold change” value came to 0.136. To RRIRIRPPRLPRPRPRPDQWPRP belongs 0.0363; to RRIRIRPPRLPRPRPRPSHSPRP, -1.02; to RRIRLRPPRLPRPRPRPGGGPRP, 0.849.

Regarding RRIRDRPPRLPRPRPRPFHDPRP, the “shrunken log2 fold change” value is -0.157. For RRIRNRPPRLPRPRPRPVQQPRP the value was 0.171; for RRIRARPPRLPRPRPRPYEQPRP, 0.0674. To RRIRWRPPRLPRPRPRPSGEPRP belongs 0.138. With RRIRTRPPRLPRPRPRPHDSPRP, the “shrunken log2 fold change” value is -0.229.

RRIRLRPPRLPRPRPRPCMVPRP: the “shrunken log2 fold change” value was -0.365. To RRIRMRPPRLPRPRPRPGSRPRP belongs 0.991.

In the case of RRIRARPPRLPRPRPRPAYAPRP, the “shrunken log2 fold change” value was found to be 0.476. To RRIRIRPPRLPRPRPRPHNWPRP belongs -0.239; to RRIRIRPPRLPRPRPRPNGPPRP, 0.00676; to RRIRNRPPRLPRPRPRPMDEPRP, 0.358. Turning to RRIRLRPPRLPRPRPRPRNQPRP, the “shrunken log2 fold change” value is -0.204. To RRIRGRPPRLPRPRPRPDVEPRP belongs 1.27; to RRIRYRPPRLPRPRPRPADYPRP, 3.66.

RRIRIRPPRLPRPRPRPINSPRP: the “shrunken log2 fold change” value was -0.619. For RRIRRRPPRLPRPRPRPECQPRP the value was 0.253; for RRIRFRPPRLPRPRPRPDDPPRP, 0.212; for RRIRSRPPRLPRPRPRPKACPRP, -0.253.
